Experiment [1] concerns the target HLA-B*08:01. Kind of experiment: IEDB peptide-MHC binding, purified MHC/competitive/radioactivity; filed as Kd, often an IC50 or EC50 that approximates it; ≥ and ≤ were set here for values at or beyond the usual limits of such assays.
The target in experiment [2] is HLA-A*01:01. The experiment is described as above.
Experiment [3] has as its target HLA-A*23:01. Described as above.
Experiment [4] deals with HLA-A*24:02. Described as above.
Experiment [5] deals with HLA-A*26:01. The experiment is described as above.
In experiment [6] the target is HLA-A*29:02. The description is as above.
The target in experiment [7] is HLA-A*30:02. The experiment is described as above.
Experiment [8] addresses HLA-A*02:01. Kind of experiment: IEDB peptide-MHC binding, purified MHC/competitive/fluorescence; filed as Kd, often an IC50 or EC50 that approximates it; ≥ and ≤ were set here for values at or beyond the usual limits of such assays.
The target in experiment [9] is HLA-A*32:01. Kind of experiment: IEDB peptide-MHC binding, purified MHC/competitive/radioactivity; filed as Kd, often an IC50 or EC50 that approximates it; ≥ and ≤ were set here for values at or beyond the usual limits of such assays. The settings on record: source organism: Vaccinia virus WR.
Experiment [10] has as its target HLA-A*03:01. Briefly: IEDB peptide-MHC binding, purified MHC/direct/fluorescence; filed as Kd, often an IC50 or EC50 that approximates it; ≥ and ≤ were set here for values at or beyond the usual limits of such assays.
Experiment [11] addresses HLA-A*31:01. Described as above.
Experiment [12] addresses HLA-A*11:01. Described as above. Conditions: source organism: Haemophilus influenzae.
The target in experiment [13] is HLA-B*15:01. The description is as above. Conditions: source organism: Haemophilus influenzae.
The target in experiment [14] is HLA-B*58:01. Described as above. Conditions: source organism: Haemophilus influenzae.
Setting [15] is: source organism: Vaccinia virus WR.
The mark [16] stands for this setting: source organism: SARS coronavirus Tor2.
The mark [17] stands for this setting: source organism: Lassa virus Josiah.
[18] abbreviates: source organism: Entamoeba histolytica HM-1:IMSS.
Setting [19] is: source organism: Haemophilus influenzae.

What is called Kd is the free concentration of one partner at which half of the binding sites on the other are occupied at equilibrium, for simple one-to-one binding. With YRIAKFLFM, the Kd in experiment [1] (setting [15]) was 16.8 nM.
As to DSKEGFFTY, the Kd in experiment [2] (setting [16]) is 200 nM; in [3] (setting [16]), at least 77800 nM; in [4] (setting [16]), at least 77600 nM; in experiment [5] (setting [16]), 993 nM; in [6] (setting [16]) it was 663 nM; in experiment [7] (setting [16]), 237 nM.
Turning to HSYGIDLKSY, the Kd was 80.6 nM in experiment [2] (setting [16]); at least 70000 nM in [3] (setting [16]); at least 56400 nM in experiment [4] (setting [16]); 451 nM in experiment [5] (setting [16]); 29.2 nM in experiment [6] (setting [16]); 7.12 nM in experiment [7] (setting [16]).
The sequence ILHLILWIL showed a Kd in [8] (source organism: Influenza A virus (A/Memphis/1/1978(H1N1))) of 6000 nM.
Turning to DYAEISFML, the Kd in [2] (setting [16]) was at least 22500 nM; in [3] (setting [16]), at least 90700 nM; in experiment [4] (setting [16]), at least 105000 nM; in [5] (setting [16]), at least 68900 nM; in [6] (setting [16]), 100 nM; in experiment [7] (setting [16]), 440 nM.
For the sequence ETNDLVTNV, in experiment [8] (source organism: Variola virus), the Kd was 3240 nM.
For the sequence LAIPPTAGVL, in experiment [1] (source organism: Dengue virus 3 Martinique/1243/1999), the Kd worked out at 11900 nM.
For ICLSGDGWPY, the Kd in experiment [2] (setting [17]) was 6320 nM; in experiment [3] (setting [17]), at least 70000 nM; in experiment [4] (setting [17]), at least 70300 nM; in experiment [5] (setting [17]), at least 69700 nM; in experiment [6] (setting [17]), 371 nM; in experiment [7] (setting [17]), 678 nM.
Regarding RTISESNTI, the dissociation constant (Kd) in [9] was found to be 960 nM.
As for NLIIHTAAL, the Kd in experiment [1] (setting [15]) came out at 1.55 nM.
Regarding EQMQRKHGGM, the Kd in experiment [1] (source organism: Dengue virus 1 Brazil/97-11/1997) came to 86 nM.
For the sequence MTCGQPLSL, in experiment [9], the equilibrium dissociation constant (Kd) is 5.56 nM.
Take RFLYIIKLVF: the Kd in [2] (setting [16]) turned out to be 1060 nM; in experiment [3] (setting [16]) it was 0.0321 nM; in experiment [4] (setting [16]), 13.3 nM; in experiment [5] (setting [16]), 16600 nM; in experiment [6] (setting [16]), 1050 nM; in experiment [7] (setting [16]) it was 1190 nM.
With ANKWYFAPR, the Kd is at least 20000 nM in [10] (setting [18]) and 1.4 nM in [11] (setting [18]).
As to IFFASFYYIW, the Kd in experiment [2] (setting [16]) was determined as 1270 nM; in experiment [3] (setting [16]), 0.529 nM; in experiment [4] (setting [16]), 24.3 nM; in experiment [5] (setting [16]), 1370 nM; in experiment [6] (setting [16]) it was 31.6 nM; in [7] (setting [16]), 12100 nM.
In the case of KLLRRPFSL, the Kd in experiment [1] (setting [15]) was found to be 0.362 nM.
Take RLFFIDWEY: the Kd amounted to 1060 nM in experiment [10] (setting [19]); 5270 nM in experiment [12]; 905 nM in experiment [11] (setting [19]); 296 nM in experiment [13]; 190 nM in experiment [14].
Take TKQTGSASSM: in experiment [1] (source organism: Dengue virus 2 Jamaica/1409/1983), the Kd stood at 1440 nM.
As for LAAEWVLAY, the Kd was 35.5 nM in experiment [2] (setting [16]); at least 40300 nM in [3] (setting [16]); at least 41100 nM in experiment [4] (setting [16]); 75.2 nM in [5] (setting [16]); 0.47 nM in experiment [6] (setting [16]); 16.3 nM in experiment [7] (setting [16]).
For VTDTNKFAHY, the Kd in [2] (source organism: Variola virus) is 13.6 nM; in experiment [3] (source organism: Variola virus) it was at least 50200 nM; in experiment [4] (source organism: Variola virus), at least 70300 nM; in experiment [5] (source organism: Variola virus), at least 69700 nM; in experiment [6] (source organism: Variola virus) it was at least 25500 nM; in experiment [7] (source organism: Variola virus), 1290 nM.
MFGTRKNSF: the Kd in experiment [1] (setting [15]) was determined as 2.04 nM.

The values above are taken from the Immune Epitope Database (IEDB).
